In this assay the target is precursor of the polypeptide that induces IFN-γ production in immunocompetent cells (human).

Among the data in US5891663 are conversion of the precursor into the active polypeptide; IFN-γ content (IU/ml) induced in KG-1 cells by the reaction mixture, with Western blot time course values, retold here.

Turning to “interleukin-1β converting enzyme (from UniProt P29466)”, the conversion of the precursor into the active polypeptide; IFN-γ content (IU/ml) induced in KG-1 cells by the reaction mixture, with Western blot time course was 4000 IU/ml.
